First the molecules themselves.
B1: A26.8 VHH T56R, Q101K (VHH)
VHH: QVKLEESGGGLVQAGGSLRLSCAASERTFSRYPVAWFRQAPGAEREFVAVISSTGRSTYYADSVKGRFTISRDNAKVTVYLQMNNLKREDTAVYFCAVNSKRTRLQDPNEYDYWGQGTQVTVSS
notes: source: E. coli TG1, periplasmic extract, purified (IMAC, SEC)
B2: A26.8 VHH T56R, T103M (VHH)
VHH: QVKLEESGGGLVQAGGSLRLSCAASERTFSRYPVAWFRQAPGAEREFVAVISSTGRSTYYADSVKGRFTISRDNAKVTVYLQMNNLKREDTAVYFCAVNSQRMRLQDPNEYDYWGQGTQVTVSS
notes: as for B1
B3: A26.8 VHH Q101K, T103R (VHH)
VHH: QVKLEESGGGLVQAGGSLRLSCAASERTFSRYPVAWFRQAPGAEREFVAVISSTGTSTYYADSVKGRFTISRDNAKVTVYLQMNNLKREDTAVYFCAVNSKRRRLQDPNEYDYWGQGTQVTVSS
notes: as for B1
B4: A26.8 VHH Q101K, T103K (VHH)
VHH: QVKLEESGGGLVQAGGSLRLSCAASERTFSRYPVAWFRQAPGAEREFVAVISSTGTSTYYADSVKGRFTISRDNAKVTVYLQMNNLKREDTAVYFCAVNSKRKRLQDPNEYDYWGQGTQVTVSS
notes: as for B1
B5: A26.8 VHH Q101K, T103M (VHH)
VHH: QVKLEESGGGLVQAGGSLRLSCAASERTFSRYPVAWFRQAPGAEREFVAVISSTGTSTYYADSVKGRFTISRDNAKVTVYLQMNNLKREDTAVYFCAVNSKRMRLQDPNEYDYWGQGTQVTVSS
notes: as for B1

The experiment addresses T1, Clostridium difficile toxin A (Clostridioides difficile …, UniProt P16154).
T1 construct: also called TcdA
The experiment in a line: SPR. To be noted: both partners purified.
Regarding B1, the Kd (usually the constant that tells how readily two partners part at equilibrium) amounted to 4.1 nM; the koff (as a rule, a measure of how fast the partners let go of each other) was found to be 0.05 s⁻¹; the kon (commonly the second-order rate constant of association) was found to be 1.24e+07 M⁻¹ s⁻¹.

B2 gave a dissociation constant Kd of 4.8 nM, a koff of 0.03 s⁻¹ and a kon of 6.4e+06 M⁻¹ s⁻¹.

Molecule B3 returned a Kd of 4.2 nM, a dissociation rate constant (koff) of 0.023 s⁻¹ and an on-rate constant (kon) of 5.5e+06 M⁻¹ s⁻¹.

In turn, B4 came in with a Kd of 8.2 nM, a koff of 0.04 s⁻¹ and a kon of 5e+06 M⁻¹ s⁻¹.

Molecule B5 yielded a Kd of 8 nM, a koff of 0.027 s⁻¹ and a kon of 3.3e+06 M⁻¹ s⁻¹.
